Data published in patent US4016042A, “Substrate for the quantitative determination of enzymes” (Pentapharm A.G., priority 1974, dated 1977).

Substrate: N=C(N)NCCC[C@H](NC(=O)[C@H](Cc1ccccc1)NC(=O)[C@@H]1CCCN1C(=O)c1ccccc1)C(=O)Nc1ccc([N+](=O)[O-])cc1
Assay: Km and vmax determination with substrate (Lineweaver-Burk), plasmin
Format: biochemical
Conditions: other: plasmin; substrate concentration varied, enzyme constant; measured at 405 nm
Method: As is evident from equation (2) constants Km and k3 determine the activity of the enzyme substrate for a given enzyme. For determining these constants the following procedure is followed:
The enzyme and the substrate are mixed in a buffer solution, and the reaction is followed spectrophotometrically for 2 to 30 minutes. The concentration of substrate [S] is varied, whereas the enzyme concentration [E] is kept constant. If the extinction (OD) (= optical density) is plotted in a co-ordinate system as a function of time, a curve is obtained the tangent of which (difference in extinction per minute, Δ OD/minute, from which the quantity in μmoles of pNA/min (v) can be calculated) at time zero corresponds to the ideal course of the hydrolysis. By means of this tangent the initial rate of the hydrolysis can be determined.
If 1/v is plotted against 1/[S], a Lineweaver-Burk diagram (cf. "Kurzes Lehrbuch der Biochemie" by P. KARSON, Georg Thieme-Verlag, Stuttgart, 1967, p. 70) is obtained from which vmax and Km can be determined graphically.
Km and k3 = vmax /E were determined with N^α-Bz-Pro-Phe-Arg-pNA^. HCl (i.e. the substrate prepared according to Example 1) for plasma kallikrein, trypsin, plasmin and thrombin.

B1: plasmin (Homo sapiens) (protein)
chain: VVGGCVAHPHSWPWQVSLRTRFGMHFCGGTLISPEWVLTAAHCLEKSPRPSSYKVILGAHQEVNLEPHVQEIEVSRLFLEPTRKDIALLKLSSPAVITDKVIPACLPSPNYVVADRTECFITGWGETQGTFGAGLLKEAQLPVIENKVCNRYEFLNGRVQSTELCAGHLAGGTDSCQGDSGGPLVCFEKDKYILQGVTSWGLGCARPNKPGVYVRVSRFVTWIEGVMRNN
- Km: 140 µM
